Laboratory results: publication doi:10.1101/596171

Target: T1, HIS-GST-Nxf3 (66-336), RRM-LRR domain (Drosophila melanogaster, UniProt Q8IQK4 66-336)
T1 sequence: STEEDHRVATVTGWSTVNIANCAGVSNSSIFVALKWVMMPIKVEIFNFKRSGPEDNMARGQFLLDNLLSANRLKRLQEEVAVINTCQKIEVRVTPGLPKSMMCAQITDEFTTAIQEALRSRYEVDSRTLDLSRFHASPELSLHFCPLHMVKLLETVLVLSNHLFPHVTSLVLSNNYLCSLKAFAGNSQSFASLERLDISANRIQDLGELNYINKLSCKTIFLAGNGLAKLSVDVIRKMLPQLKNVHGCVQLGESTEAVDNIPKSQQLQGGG
Assay: EMSA

B1: 35 nt ssRNA (ssRNA)
RNA: CUCAUCUUGGUCGUACGCGGAAUAGUUUAAACUGU
**Q.** Does B1 bind?
**A.** binds
